Experimental data from patent US20040126819A1 (LICENTIA, published 2004).

What was measured:
[1] = target: T1, 135 kD GDNF receptor subunit of rat cell lines; experiment: displacement of 125I-GDNF by cold GDNF on RN33B cells, cross-linking, SDS-PAGE, bands counted
T1 construct: On C6, L6, RN33B and RN46A cells
Protocol: (§1) Plated cells were incubated with 10 ng/ml […] at 4° C. in binding buffer as described above. Ligand/receptor complexes were chemically cross-linked for thirty minutes at room temperature using either disuccinimidyl suberate (DSS) or 1-Ethyl-3(-3-dimethylaminopropyl)-carbodiimide hydrochloride (EDAC) (Pierce Chemical, Rockland, Ill.). Following quenching of the cross-linking reactions, cells were washed twice with 10 mM Tris/HCl buffered saline, 2 mM EDTA, 10% glycerol, 1% NP40, 1% Triton x-100, 10 μg/ml leupeptin, 10 μg/ml antipain, 50 μg/ml aprotinin, 100 μg/ml benzamidine hydrochloride, 10 μg/ml pepstatin and 1 mM PMSF(proteinase inhibitors from Sigma). Cleared lysates were boiled for 5 min in SDS/β-mercaptoethanol buffer, fractionated by SDS/PAGE on 4-20% gradient electrophoresis gels, and visualized by autoradiography. […] These samples were fractionated by gradient SDS/PAGE, gels were then dried and specific bands excised according to molecular weights determined from autoradiograms, and count in a gamma counter. […]
(§2) In order to dissect the individual constituent affinities of GDNF receptor subunits, displacement binding assays were performed, followed by cross-linking and SDS-PAGE. Receptor-ligand complexes were visualized by autoradiography, cut out from the gel and counted in a gamma counter.

[2] = target: T2, 300 kD GDNF receptor subunit of rat cell lines; experiment: as above
T2 construct: On C6, L6, RN33B, RN46A and ST15A cells; also called large molecular weight band; high molecular weight component
Protocol: as §1, §2

[3] = target: T1, 135 kD GDNF receptor subunit of rat …; experiment: displacement of 125I-GDNF by increasing cold GDNF on RN33B cells, cross-linking, SDS-PAGE, band of the subunit cut out and counted
Protocol: (§3) Plated cells were incubated with 10 ng/ml […] at 4° C. in binding buffer as described above. Ligand/receptor complexes were chemically cross-linked for thirty minutes at room temperature using either disuccinimidyl suberate (DSS) or 1-Ethyl-3(-3-dimethylaminopropyl)-carbodiimide hydrochloride (EDAC) (Pierce Chemical, Rockland, Ill.). Following quenching of the cross-linking reactions, cells were washed twice with 10 mM Tris/HCl buffered saline, 2 mM EDTA, 10% glycerol, 1% NP40, 1% Triton x-100, 10 μg/ml leupeptin, 10 μg/ml antipain, 50 μg/ml aprotinin, 100 μg/ml benzamidine hydrochloride, 10 μg/ml pepstatin and 1 mM PMSF(proteinase inhibitors from Sigma). Cleared lysates were boiled for 5 min in SDS/β-mercaptoethanol buffer, fractionated by SDS/PAGE on 4-20% gradient electrophoresis gels, and visualized by autoradiography. Molecular weights indicated were obtained by subtracting the weight of a GDNF ligand monomer, e.g., 25-30 kD, more preferably […], from the estimated molecular weights of cross-linked complexes visualized by SDS/PAGE. For affinity measurements of cross-linked complexes, cells were incubated on plates as above in the presence of increasing amounts of unlabeled GDNF. These samples were fractionated by gradient SDS/PAGE, gels were then dried and specific bands excised according to molecular weights determined from autoradiograms, and count in a gamma counter. […] Immunocomplexes were collected with Protein A-Sepharose (Pharmacia, Sweden), washed in lysis buffer and boiled for 5 minutes before SDS/PAGE and autoradiography as above.
as §2

[4] = target: T2, 300 kD GDNF receptor subunit of rat …; experiment: as above
Protocol: as §3, §2

[5] = target: T3, 55 kD GDNF receptor subunit of rat cell lines (confirmed to be GDNFR-α) (rat, UniProt Q62997 25-430); experiment: as above
T3 construct: whole, on cells; also called 50-55 kD receptor; 70 kD complex (with GDNF) in RN33B cells
T3 sequence (looked up): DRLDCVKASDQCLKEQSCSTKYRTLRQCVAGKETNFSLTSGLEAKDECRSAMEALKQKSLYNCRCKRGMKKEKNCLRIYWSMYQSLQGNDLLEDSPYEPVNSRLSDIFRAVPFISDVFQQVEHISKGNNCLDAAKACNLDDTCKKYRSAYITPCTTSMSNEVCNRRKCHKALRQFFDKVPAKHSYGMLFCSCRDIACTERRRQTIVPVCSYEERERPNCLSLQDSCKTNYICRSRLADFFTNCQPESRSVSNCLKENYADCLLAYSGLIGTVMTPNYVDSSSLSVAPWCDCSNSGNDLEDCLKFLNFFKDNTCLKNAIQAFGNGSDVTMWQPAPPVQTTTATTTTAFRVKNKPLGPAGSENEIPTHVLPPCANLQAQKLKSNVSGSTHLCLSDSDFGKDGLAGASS
Protocol: as §3, §2

[6] = target: T4, 70 kD GDNF receptor subunit of rat cell lines (designated GDNFR-β) (rat, UniProt O35977 22-444); experiment: as above
T4 construct: whole, on cells; also called 65-70 kD receptor; 100 kD complex (with GDNF) in RN33B cells
T4 sequence: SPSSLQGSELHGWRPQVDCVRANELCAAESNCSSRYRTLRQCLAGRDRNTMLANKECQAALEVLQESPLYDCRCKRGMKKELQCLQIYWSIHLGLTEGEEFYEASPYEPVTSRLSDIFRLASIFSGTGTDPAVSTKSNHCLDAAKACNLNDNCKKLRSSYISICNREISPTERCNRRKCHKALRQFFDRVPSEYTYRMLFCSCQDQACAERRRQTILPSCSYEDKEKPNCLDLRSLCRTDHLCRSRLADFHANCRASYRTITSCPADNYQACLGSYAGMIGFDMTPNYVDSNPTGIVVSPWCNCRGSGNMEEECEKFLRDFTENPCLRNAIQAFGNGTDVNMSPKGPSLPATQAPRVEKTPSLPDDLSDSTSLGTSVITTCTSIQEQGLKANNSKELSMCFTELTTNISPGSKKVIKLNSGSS
Protocol: as §3, §2

[7] = target: 300 kD GDNF receptor subunit of mouse cell lines (MN-1, TM4, SK-N-SH as printed); experiment: displacement of 125I-GDNF by cold GDNF on MN-1 cells, cross-linking, SDS-PAGE, bands counted
Protocol: as §1, §2

B1: recombinant rat GDNF produced in Sf21 insect cells using a baculovirus expression system (ligand, UniProt Q07731 78-211, looked up)
chain: SPDKQAAALPRRERNRQAAAASPENSRGKGRRGQRGKNRGCVLTAIHLNVTDLGLGYETKEELIFRYCSGSCEAAETMYDKILKNLSRSRRLTSDKVGQACCRPVAFDDDLSFLDDSLVYHILRKHSAKRCGCI
modifications: labeled with Na-^125I by the chloramine-T method where used as tracer
notes: mature; also called glial cell line-derived neurotrophic factor
Kd [1]: ~0.2 nM
Kd [2]: ~0.2 nM
IC50 (read off the curve) [3]: ~0.2 nM
IC50 (read off the curve) [4]: ~0.1 nM
IC50 (read off the curve) [5]: ~0.2 nM
IC50 (read off the curve) [6]: ~0.2 nM
Kd [7]: ~0.2 nM
